# Reference: the supplement of paper PMC12042874
# ± gives the uncertainty stated by the source.
# Assay: amyloid nucleation score (Sup35N fusion, yeast selection) (log enrichment); library NNK2; higher = more nucleation; inactive = no reads after selection
# Procedure, shortened: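 Output and input plasmid inserts were sequenced by Illumina after psi-negative yeast carrying Sup35N fused to peptides of 20 random codons had been induced 24 hours with 100 μM copper sulfate and grown 7 days at 30°C on medium lacking adenine and uracil. The nucleation score is the DiMSum log enrichment of output over input reads, centred on the mode score of non-aggregating sequences. Sequences with under 100 input reads were excluded.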
row,Substance,amyloid nucleation score
1,KAEHVFFVYRGLTEVFASGL,inactive
2,KALAYAWLCISLYKDFGYYN,inactive
3,KAPRTIYPVVLQPAS,-0.484 ± 0.33
4,KAREWQVLVRCKKLTMKYSK,8.227 ± 0.046
5,KCGRWPANAVYWHDTLSCAC,0.231 ± 0.31
6,KCLDSFDMSDMYSR,-0.632 ± 1.1
7,KCLWWFWLQDRKKRVMCLTG,0.771 ± 0.43
8,KCPSESMRKFF,0.672 ± 0.53
9,KCTFMTDFMIIDEVMYWNRC,1.35 ± 0.46
10,KCWYRH,1.39 ± 0.1
11,KDFFSVVSH,0.573 ± 0.66
12,KDLEFGRCIDDDYPLSRSF,0.141 ± 0.46
13,KDRDNVTGNSVVVRLRRRVL,-0.296 ± 0.54
14,KEEVRSLFIGTFPKIFFGLH,0.251 ± 0.46
15,KEGFPMIIDYEIGFTDLSGG,-1.43 ± 0.75
16,KELDLDFRCFQYYNVVVVPQ,2.33 ± 0.091
17,KELRQSVVIM,0.644 ± 0.35
18,KERELSTTECCTILCSVLFY,6.852 ± 0.059
19,KFDLSCNPNSPGSLRYTLNN,inactive
20,KFFDRYMFTRGLHT,7.819 ± 0.051
21,KFFFSCTTKFL,3.06 ± 0.1
22,KFFLFDHNNNF,0.699 ± 0.33

row,Substance,amyloid nucleation score
1,KFGVGSLLTSLGYATRSCYL,-0.771 ± 0.25
2,KFKATWYRNSFRAMPCVKPA,0.042 ± 1.1
3,KFLGYQLPPRDSSSGTF,0.066 ± 0.27
4,KFMARDLRTYFIALQPRCKD,6.614 ± 0.05
5,KGCVLCNIFCRSKGVVGSTL,8.737 ± 0.035
6,KGDGNRSDTDVFITHIFMYY,6.336 ± 0.048
7,KGDRKKDCMPDLVYRKLSGV,0.798 ± 0.67
8,KGFIIFSFSSAIR,2.46 ± 0.1
9,KGGEVEGLSLR,-0.889 ± 0.63
10,KGIQYSTLVTRRFWMW,3.68 ± 0.088
11,KGPTSLLYLVMCFMVLQQLR,-0.447 ± 0.78
12,KGRVVSCIWGSCPGTSGR,-0.235 ± 1.1
13,KGVCWVTICELHDW,-0.305 ± 0.48
14,KGVRVQDTNVGIWAGKWGVV,0.883 ± 0.29
15,KGWNMHSPMRALQHAETVGT,0.859 ± 0.3
16,KHIWAMNGCYSLLLKNPALV,-0.649 ± 1.1
17,KHMLASSFVTVPFVAPCFHF,inactive
18,KIAWLTLHLTMWFST,0.329 ± 0.41
19,KICYWLRRASVYMLVVLGRP,-0.343 ± 0.49
20,KIMYVSQECSGADLLGLYFF,-0.747 ± 0.79
21,KINCLFISLGNRSRVVRTS,0.681 ± 0.37
22,KIRNSGG,0.747 ± 0.56

row,Substance,amyloid nucleation score
1,KIYERPAITDFGSQVD,-0.505 ± 0.21
2,KKRQCGMVGLNLVGQYLHSF,-1.3 ± 0.62
3,KKVYVSDTIWMDYNNS,3.93 ± 0.064
4,KLACVEGTKWAASGIAPNV,0.946 ± 0.2
5,KLALVDIGLVPVIAIMCWMS,0.877 ± 0.14
6,KLFIRWVAWY,0.113 ± 0.8
7,KLLKYLSNSFTHRVLCNHDD,inactive
8,KLMLSALFLKVPAIIGRYRW,0.736 ± 0.8
9,KLMPLTTIPDEVWYFIGYRL,-0.501 ± 0.32
10,KLSSKDHRFYKVSMKRV,0.247 ± 0.8
11,KLSSRYIYLYSRYEPSS,inactive
12,KLVMFVGIFSNT,6.39 ± 0.085
13,KLYWGNWWCRGSLVDTI,0.695 ± 0.66
14,KMCIAKKSWEGQLVILYMSA,-0.354 ± 0.48
15,KMGLRRFNFCARFEYRTSVA,-0.048 ± 0.25
16,KMSYVYP,-0.622 ± 0.41
17,KNLLVHNFACGR,0.462 ± 0.74
18,KNNVCSHIPNLGSYYLF,0.736 ± 0.8
19,KNSVVL,0.275 ± 0.64
20,KNSYNVPEYLRLLLWGNGMC,inactive
21,KNTVKDGWRMMMDGCMNTHW,0.259 ± 0.15
22,KNTYKQACWQAELHKGLLVG,0.748 ± 0.17

row,Substance,amyloid nucleation score
1,KNYHCTLSWLWFMACFSGIP,2.61 ± 0.15
2,KPFHLIKTWKQLLLEKGGPN,-0.157 ± 0.28
3,KPLCS,-0.58 ± 0.55
4,KPLNVHELIVSYEYYLLFCQ,inactive
5,KPVGPVYAS,-0.262 ± 0.48
6,KQENMPDSAVVYCRRWGSDM,0.057 ± 0.76
7,KRFGNFMTLRTLRVT,1.42 ± 0.14
8,KRIPSSWWFVGLVGITWRPA,0.826 ± 0.29
9,KRSLNLLKGLIYL,-1.05 ± 1.1
10,KRTTLWTARSRLCERTLNCS,0.324 ± 0.24
11,KRVLDSGFN,-0.845 ± 1
12,KRVSASDISSLYADVRIKE,-0.852 ± 0.76
13,KSCAVFYSSNYVSGSNYLFF,6.369 ± 0.047
14,KSCGLLAYDT,inactive
15,KSIGTAGFDN,-0.846 ± 0.42
16,KSKRMVTMHKMNENTGLLGD,0.543 ± 0.5
17,KTFMCSFSQHVKGSGVFLTS,-0.346 ± 0.49
18,KTIFGGWSARSGNISMPSWM,0.267 ± 0.54
19,KTMWLLWINGLHMSSHFRSK,-0.006 ± 0.22
20,KTYEMTDQVIRKPYPL,0.347 ± 0.25
